One substance from PMC12489045, “Non-coding RNA mediates the defense-associated reverse transcriptase (DRT) anti-phage oligomerization transition” (The EMBO Journal, 2025) can be followed below.

Experiment [1] concerns the target DRT9 reverse transcriptase (DRT9-RT protein), wild type, in complex with its ncRNA (Escherichia coli). Kind of experiment: cryo-EM structure; DRT9 RT-ncRNA complex without dNTPs, 2 mg/ml; 3.49 Å.
For experiment [2] the target is unchanged. In words: cryo-EM structure; DRT9 RT-ncRNA complex (2 mg/ml) with 1 mM of each dNTP, 25 mM Tris-HCl pH 7.5, 150 mM NaCl, 5 mM MgCl2, room temperature 1 h; 3.46 Å.

On to “DRT9 reverse transcriptase (DRT9-RT protein), wild type, in complex with its ncRNA (enzyme)”, for which, in experiment [1], the fraction of particles that are hexamers (without dNTPs) stood at 13% and the stoichiometry N was 4. The substance also had a stoichiometry N in experiment [2] of 6.
